# In patent US20240225985A1, “BRIGHTENING COMPOSITIONS AND METHODS OF USE” (Alastin Skincare, Inc., priority 2021, published 2024):
# “Also recorded” adds a separate entry of the source.
# B1: Lactoferrin: 80 kDa iron binding glycoprotein of the transferrin family (protein)
# chain: APRKNVRWCTISQPEWFKCRRWQWRMKKLGAPSITCVRRAFALECIRAIAEKKADAVTLDGGMVFEACRDPYKLRPVAAEIYGTKESPQTHYYAVAVVKKGSNFQLDQLQGRKSCHTGLGRSAGWIIPMGILRPYLSWTESLEPLQGAVAKFFSASCVPCIDRQAYPNLCQLCKGEGENQCACSSREPYFGYSGAFKCLQDGAGDVAFVKETTVFENLPEKADRDQYELLCLNNSRAPVDAFKECHLAQVPSHAVVARSVDGKEDLIWKLLSKAQEKFGKNKSRSFQLFGSPPGQRDLLFKDSALGFLRIPSKVDSALYLGSRYLTTLKNLRETAEEVKARYTRVVWCAVGPEEQKKCQQWSQQSGQNVTCATASTTDDCIVLVLKGEADALNLDGGYIYTAGKCGLVPVLAENRKSSKHSSLDCVLRPTEGYLAVAVVKKANEGLTWNSLKDKKSCHTAVDRTAGWNIPMGLIVNQTGSCAFDEFFSQSCAPGADPKSRLCALCAGDDQGLDKCVPNSKEKYYGYTGAFRCLAEDVGDVAFVKNDTVWENTNGESTADWAKNLNREDFRLLCLDGTRKPVTEAQSCHLAVAPNHAVVSRSDRAAHVKQVLLHQQALFGKNGKNCPDKFCLFKSETKNLLFNDNTECLAKLGGRPTYEEYLGTEYVTAIANLKKCSTSPLLEACAFLTR
# Columns and labels:
# [1] = system: hTERT-immortalized dermal melanocytes; assay: Melanocyte assay, daily inspection of cell morphology; assay type: cell-based, human; conditions: both concentrations of Table 11; five-day dosing period
# Method: Once the melanocytes were 100% confluent in 6-well plates, the melanocyte growth media was removed and the melanocytes were treated with media containing the above compounds; duplicate wells for each compound/concentration listed above. The duplicate vehicle control wells were fed melanocyte growth media only or melanocyte growth media with DMSO (10 uL per 10 mL melanocyte growth media).
# The cells were fed the appropriate media for the next 5 days. Each day, the cells were inspected for morphology.
# endothelial cells = assay: Gene expression of PMEL, tyrosinase genes, MC1/4R, EDNRB, MITF, ERK1/2, JNK, AKT1; assay type: cell-based; conditions: after treatment of endothelial cells
# Excerpt: The methods similar to Examples 3-4 were used to measure expression of PMEL, tyrosinase genes, MC1/4R, EDNRB, MITF, ERK1/2, JNK, and ANKT1.
# FIGS. 10A-10D illustrates the expression of PMEL (FIG. 10A), Tyrosinase genes (FIG. 10B), MC1/4R (FIG. 10C), and EDNRB (FIG. 10D) after treatment of endothelial cells with lactoferrin (Lacto), peptide derived from lactoferrin (TCV), hexapeptide-12 (Hex12), tripeptide-1 and hexapeptide-12 (TriHex), hexapeptide-11 (Hex11), tranexamic acid (Tran acid) octapeptide (Octa), phosphatidylserine (phos), Cannabidiol (CBD), and all (total).
# MITF is regulated by phosphorylation. Specifically, the MAPK and Akt pathways are known to phosphorylate MITF at certain sites. FIGS. 12A-12C illustrate the expression of ERK1/2 (MAPK3/MAPK1) (FIG. 12A), JNK (FIG. 12B), AKT1 (FIG. 12C) after treatment of endothelial cells with lactoferrin (Lacto), peptide derived from lactoferrin (TCV), hexapeptide-12 (Hex12), tripeptide-1 and hexapeptide-12 (TriHex), hexapeptide-11 (Hex11), octapeptide (Octa), phosphatidylserine (phos), Cannabidiol (CBD), and all (total).
# melanocytes [2] = assay: In vitro melanocyte comparative analysis via absorbance readings (melanin production); assay type: cell-based; conditions: for Absorbance 405 nm / Absorbance 490 nm / Absorbance 492 nm: 4 days, control = 0.0 row
# Method: Melanocytes were cultured in 6-well plates containing growth media. Once confluent, 2 concentrations of each of the 10 compounds were added to the cells in triplicate wells for 4 days. There were a total of eleven 6-well plates, one for each compound treatment and one for the vehicle control. Absorbance readings were taken on the lysates prepared for each well of the 6-well plates, normalizing for cells counts. The model was initially tested for accuracy and validated using hexapeptide-12 in view of strong gene expression results with melanocyte cell line in the first study—confirmation of decreased stimulation was obtained. Additional validation was carried out using MSH addition to media to confirm increased stimulation of melanin production. The following compounds used in this study are seen in Table 9.
# melanocytes [3] = assay: Gene expression study (RNA sequencing) in PGE2-induced melanocytes; assay type: cell-based, human; conditions: melanocytes induced with 10 uM PGE2; 24 hours of compound exposure
# Method: Four cell types associated with pigmentation pathways—melanocytes, keratinocytes, fibroblasts and endothelial (HUVEC) cells—were analyzed for gene expression.
# To simulate the UV stimulatory pigmentation pathway process, melanocytes were pre-treated with PGE2, a normal direct consequence of UV light exposure usually emanating from exposed keratinocytes. After the 48 hour attachment culture, these melanocytes were induced with 10 uM PGE2 in melanocyte media for 24 hrs. The four primary human adult dermal cell lines were cultured and plated in well plates in triplicate and then treated with 11 different compound treatments (plus DMSO control). After 48 hours of attachment culture, the remaining fibroblasts, HUVECs and keratinocytes were treated with the test compounds listed in Table 8.
# After 24 hours of compound exposure, RNA lysate preparation was carried out and samples were shipped to MedGenome for RNA extraction, library construction and sequencing to 25M paired end 100 bp reads per sample. Library prep and sequencing was completed at MedGenome.
# [4] = higher concentration (Lactoferrin 1000, HEX-11 200, Phosphatidylserine 500, Silymarin 20, Sesamol 100, Tranexamic Acid 1000, HEX-12 4.9, ug/mL or ug/uL; Phytoene/Phytofluene 5.00%)
# [5] = lower concentration (Lactoferrin 500, HEX-11 100, Phosphatidylserine 250, Silymarin 10, Sesamol 50, Tranexamic Acid 500, HEX-12 2.9, ug/mL or ug/uL; Phytoene/Phytofluene 2.50%)
molecule,measurement,setting,value
B1,melanocyte morphology / survival on daily inspection,[1],"developed a circular morphology rather the normal webbed morphology 24 hour post-initial dosing; also recorded: at 48 hours post-initial dosing, the melanocytes returned to normal morphology"
same,"melanogenic activity (expression of PMEL, tyrosinase genes, MC1/4R, EDNRB, kinases)",endothelial cells,robust melanogenic activity; also recorded: significant effects on such melanogenic activity
same,Absorbance 405 nm,melanocytes [2]; [4],0.519
same,Absorbance 490 nm,melanocytes [2]; [4],0.312
same,Absorbance 492 nm,melanocytes [2]; [4],0.226
same,Absorbance 405 nm,melanocytes [2]; [5],0.509
same,Absorbance 490 nm,melanocytes [2]; [5],0.334
same,Absorbance 492 nm,melanocytes [2]; [5],0.217
same,Regulation of melanogenesis (decreased absorption denoting decreased melanin formation),"melanocytes [2]; melanocytes, summary of Table 10",Regulation of melanogenesis was observed
same,melanogenic gene activity in melanocytes,melanocytes [3],particularly dominant in melanogenic activity; also recorded: significant effects on melanogenesis activity
